biological target: Toll-Like Receptor 2 (TLR2); test: SPR
Sequence (chain, as listed by the source): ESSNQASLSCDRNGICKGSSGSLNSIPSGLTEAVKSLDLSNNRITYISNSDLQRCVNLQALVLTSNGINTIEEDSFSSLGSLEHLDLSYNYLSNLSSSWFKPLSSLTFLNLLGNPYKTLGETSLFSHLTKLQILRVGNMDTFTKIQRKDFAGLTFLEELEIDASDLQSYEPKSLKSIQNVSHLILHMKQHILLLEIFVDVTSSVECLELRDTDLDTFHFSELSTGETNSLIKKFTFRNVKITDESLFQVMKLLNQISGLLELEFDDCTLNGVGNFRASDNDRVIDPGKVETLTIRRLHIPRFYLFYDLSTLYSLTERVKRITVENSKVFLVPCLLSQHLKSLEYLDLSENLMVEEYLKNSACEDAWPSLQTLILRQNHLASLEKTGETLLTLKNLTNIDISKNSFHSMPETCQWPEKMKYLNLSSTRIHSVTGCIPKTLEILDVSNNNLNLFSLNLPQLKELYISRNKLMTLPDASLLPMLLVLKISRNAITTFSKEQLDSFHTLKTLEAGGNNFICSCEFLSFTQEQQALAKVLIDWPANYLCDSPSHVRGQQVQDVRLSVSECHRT

Question: How did the Kd turn out when GIFKKITGKLFKWIK (also called polypeptide 1) [AMP5] was run?
Answer: Its Kd is 543 nM.

Question: For GIFKKITGKCFKWIK (Chemically synthesized variant of AMP5) [AMP5-L10C], which Kd is on record?
Answer: The Kd was 834 nM.

Question: How did the Kd turn out when GIFKKIAGKLFKWIK (Chemically synthesized variant of AMP5) [AMP5-T7A] was run?
Answer: Its Kd is 373 nM.
